Reference: the RNAGym collection of RNA variant scans (doi:10.1073/pnas.2313332121)
Fewer inactive variants are shown than the library holds.

B1: TPR 5TU (parent)
chain: GGAUCUUCUCGAUCUAACAAAAAAGACAAAUCUGCCACAAAGCUUGAGAGCAUCUUCGGAUGCAGAGGCGGCAGCCUUCGGUGGCGCGAUAGCGCCAACGUUCUCAACUAUGACACGCAAAACGCGUGCUCCGUUGAAUGGAGUUUAUCAUG

Variants of: B1
Experiment: polymerase ribozyme fitness, log enrichment relative to wild type (log ratio); higher = more active; in vitro selection for triplet polymerase activity
Method in brief: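 To select mutant libraries of each subunit of a heterodimeric triplet polymerase ribozyme, built by PCR and transcribed, each was annealed with a biotinylated primer, partner subunit and triplets, then incubated frozen at −7 °C. Extended constructs were gel-excised, captured on streptavidin beads and amplified by RT-PCR, in one round carried out in triplicate. Illumina sequencing of input and output libraries kept genotypes with ≥10 input reads and ≥1 read per output. Fitness is the base-2 logarithm of genotype enrichment relative to wild-type enrichment, from inverse-variance-weighted replicate averages.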

Row | Variant | polymerase ribozyme fitness (log ratio)
1 | A12U A47G C76A C85G | -3.78
2 | U13C A26U A52C U55A G88A A89C C99U U135G A142U | ≤ -4.2
3 | C14A A16G U45A U55G U61A G65U G94C C96U U101G | ≤ -4.2
4 | A12U A39U U53G G126U | -4.09
5 | U13G A21U C57U G68A A73U G92C C103A | ≤ -4.2
6 | A12U G42C C72G C76A A91U A120U U144C | ≤ -4.2
7 | A12G U13G A121G | -2.27
8 | A12U A17U C18U G34A A64G C87G | ≤ -4.2
9 | C14G G94A | -2.61
10 | C14G G94C | -2.23
11 | C14A A17C C93U C116G | -2.99
12 | C14G A20C A40C A89C | -4.13
13 | A12G C96U | -0.793
14 | U13G U33G C54U | ≤ -4.2
15 | U13G C32A G86C A107G C125G U135A | ≤ -4.2
16 | A12U A122U A147C | -0.484
17 | A12U G84C C93U G140A | ≤ -4.2
18 | C14A U55A C75U A120U | -2.39
19 | U13A A23G C27U A28C C54U C85U C93U A115C C116G A121G A150C | -3.82
20 | U13C C57A G58A A66G U82G C116U | ≤ -4.2
21 | U13A U45A G84A | ≤ -4.2
22 | C14A C76G C87A A119G A138C U148A | ≤ -4.2
23 | C14G C27G G58A G86U U127C | -4.16
24 | A12G G25A C87G C116A U148G | ≤ -4.2

Row | Variant | polymerase ribozyme fitness (log ratio)
25 | U13C C54G C95G | -3.76
26 | U13G G59U C96U | -0.998
27 | C14G G25A U55A U127C | ≤ -4.2
28 | U13C A20C A21C G58A U82A U101A | -1.36
29 | U13C U61C C85U A89C U144A | ≤ -4.2
30 | A12G G48A C54U C85G G117U | -2.26
31 | C14A U82A G92A | ≤ -4.2
32 | A12U A39G C95U | -2.3
33 | A12U C96U | -0.566
34 | C14G A16U A39G G124A | ≤ -4.2
35 | C14G G94A A106C G136A | -3.64
36 | C14G A28C A47G U53A G84U | ≤ -4.2
37 | A12U C57G U78C C93U U127A | ≤ -4.2
38 | U13A C35U C57U | -1.42
39 | U13A U53A C63G A97U U102G A142C | ≤ -4.2
40 | U13C C36A C85G C99A A138C | ≤ -4.2
41 | A12G C93G A98G G141C | -2.52
42 | U13A A22U A89G C95A | -1.67
43 | C14A C87A A97U G143A | ≤ -4.2
44 | C14G C35G U82G G92A C96A G100A C116G A120G G141A U144A | ≤ -4.2
45 | C14G A20C G50U U53A G126U U139A | ≤ -4.2
46 | C14G G88U U102A | ≤ -4.2
47 | C14A U53A G94C | -3.67
48 | C14A A41C G94C | -2.95

Row | Variant | polymerase ribozyme fitness (log ratio)
49 | C14G C38U C95G A106C | -4.14
50 | C14A C116G | -0.826
51 | U13A A41G C85G A147G | -2.67
52 | A12U G50A U53A C87U G136A | ≤ -4.2
53 | U13G C27A C36U A40C A60G A138G | ≤ -4.2
54 | A12G C93G | -2.99
55 | A12U G71A C75U G84A C85U G117A | ≤ -4.2
56 | A12G U144G | 0.592
57 | C14A C27G | ≤ -4.2
58 | U13G C87G | ≤ -4.2
59 | C14G G58A | -2.24
60 | A12G U13C C38U G58A A73U | -1.35
61 | C14G G25C | ≤ -4.2
62 | C14A C85A C129U | -2.79
63 | A12U U55A G141A | -1.32
64 | C14A A40G C43G G86U U135C G143C U148G | ≤ -4.2
65 | A12G G70A C118U | -3.56
66 | C14A G34U G74C G84U G143A | ≤ -4.2
67 | U13A U45A U56A G74A | ≤ -4.2
68 | A12U C32G G100A C129A U144G | ≤ -4.2
69 | A12U G25C C35U U77G G94U | ≤ -4.2
70 | A12U A47C A52C U56G A64C G86A A89G C99U | ≤ -4.2
71 | A12G G92C A107G G133U | ≤ -4.2
72 | A12U A49U C54G C93G | ≤ -4.2

Row | Variant | polymerase ribozyme fitness (log ratio)
73 | A12G G58A G81C G84A G133C U144G | -1.22
74 | U13A A20U C35A G50A G83C C118G A119U C132U | ≤ -4.2
75 | U13A U15C A26C C93A | -3.05
76 | A12U A24C G46A A52G G141U A147G | ≤ -4.2
77 | A12U G92U C125U | -1.06
78 | A12U A20G A52U G141A | -3.17
79 | U13G U15A C51U C96A A121G | -2.76
80 | A12U G48U U53A C54G G71A C75G G86A C95U A119C | ≤ -4.2
81 | A12U G84A | -1.05
82 | U13G U78G G86U G140A G141A | ≤ -4.2
83 | A12G C85U | 0.000103
84 | A12G C85G | -1.96
85 | A12G G70C A113C U144C A147C | ≤ -4.2
86 | C14G A29G A60G G94C C99U C114U | ≤ -4.2
87 | A12U A40C G92A C118G | -3.87
88 | U13G A22G A24U A28G C76U U78A C79G G81A U102G C114A | ≤ -4.2
89 | A12U A17C A22C A142C | -2.44
90 | A12U G58U A60U G86C A107U G133U C149G | ≤ -4.2
91 | C14G A26G U56G A73U G143A | ≤ -4.2
92 | A12G G59A A73G A91G | -2.71
93 | A12G U55C C57G C87G A121G U148A A150C | ≤ -4.2
94 | A12G U45A C57G U78A G80U C103A C118G | ≤ -4.2
95 | A12U C85U G136U | -3.16
96 | A12U C14G | -2.05

Row | Variant | polymerase ribozyme fitness (log ratio)
97 | U13G C93G | -3.88
98 | C14A A37U G50U G94U A106U | ≤ -4.2
99 | U13C G58A | 0.452
100 | A12U G58A C85G A106G A137U A150C | ≤ -4.2
101 | C14G A39U C57G | -4.06
102 | U13G A21U C96U G133C A147C | -4.05
103 | C14G A22G G25A A28C G50C G84U U104G | ≤ -4.2
104 | U13G A91U | ≤ -4.2
105 | U13G U44A G124C U144G | ≤ -4.2
106 | U13G G50U C93U | -3.9
107 | A12U C14G A29C C32U U45A G80C | ≤ -4.2
108 | A12U A26U G46C C57U C93U C125G U127G A138G | ≤ -4.2
109 | A12U G34C G46A G83A A121U G141U | ≤ -4.2
110 | C14G A29G U33C A37U U111G G124U U134A | ≤ -4.2
111 | U13C G50U G59A U82C A121U G136A | -1.14
112 | A12G U15G C69A C75U A106G A120G | -2.52
113 | U13A A28U C43U G65A A106G | ≤ -4.2
114 | U13C A26U U56A G58C C63A G74U G88C A97U | ≤ -4.2
115 | A12G U53A | -0.69
116 | A12U U55A C57G C103A G128U A147C | -4.11
117 | C14G C93U | -3.66
118 | U13G A29U C38G G70U G117U A120U C149U | ≤ -4.2
119 | U13G C14U A16G G59A U90G | -4.01
120 | U13G C96G A120G | -1.51

Row | Variant | polymerase ribozyme fitness (log ratio)
121 | A12U G59U G94C C114U | -2.68
122 | U13G A30C G50C U82A A110C G136U | ≤ -4.2
123 | C14G G83C G117U | -2.76
124 | U13G C75G | ≤ -4.2
125 | C14A G48A A91U G100A U101C U134A | ≤ -4.2
126 | U13G C79A C103U | ≤ -4.2
127 | A12U C79U C93G C132G | ≤ -4.2
128 | U13C G25C C76A A97U C103G C105G U139C | ≤ -4.2
129 | A12U C93U A97U C103U C105U G133U | ≤ -4.2
130 | U13G A137U | ≤ -4.2
131 | A12U C18G C63G G83U U111G | ≤ -4.2
132 | A12U G34C G62C A73U C96U A107G C116G A147G | ≤ -4.2
133 | C14G G88U G140A | ≤ -4.2
134 | U13G A52C C85G G86U C129G | ≤ -4.2
135 | A12U C87U A120U | -0.814
136 | U13A U15C A28G U33G C79A C118U U148G | ≤ -4.2
137 | A12U C14U A17U G59A C93U A122U G143C | ≤ -4.2
138 | C14A A20U C85A U109G | ≤ -4.2
139 | A12U C51G G88C C108G G117C | ≤ -4.2
140 | C14G A28U G50A A119C A147U | ≤ -4.2
141 | C14G A19G C54U C76G U82G A119G G128C U134C | ≤ -4.2
142 | U13A A22U A41C U53G | -2.31
143 | U13G C36A G83U C99A G140U | -4
144 | U13A C54G G68A C75G C76G U90G C95G A119U | ≤ -4.2

Row | Variant | polymerase ribozyme fitness (log ratio)
145 | U13G G46A G83A U101A U134A U135C | ≤ -4.2
146 | A12U U111C | -4
147 | C14G C75U | -2.58
148 | A12U C14A G42A C96G U111G A122U | ≤ -4.2
149 | A12G G70A C85U C105G C116A | ≤ -4.2
150 | A12U A20G A21C U31A C35G G86U A91G A119U G128C | -3.91
151 | C14A G68U C76A C99U G100A | ≤ -4.2
152 | A12G C87A | ≤ -4.2
153 | U13A A21C U56A A60G G92U U102A C114U C123U | -3.84
154 | A12U C27G C36U C131U | ≤ -4.2
155 | C14G C85G C103A | ≤ -4.2
156 | A12U A23U A40U C87A G88C G117U | ≤ -4.2
157 | C14A G94U A107G | ≤ -4.2
158 | U13C C76A U82G C85U C118G | -2.92
159 | A12U A39U A73U G80A C93A G141U | ≤ -4.2
160 | C14G C35U G42C A52U C75A C79G G92C C118U G140C | -4.09
161 | C14A A16C U56G C57G A91C G136U | ≤ -4.2
162 | U13C C18U | 0.127
163 | C14G G83A G117U U127G | ≤ -4.2
164 | A12G U44A G46A A66C G86A C93A A97U A138G A142G | ≤ -4.2
165 | U13C A20C G83U C85A C93A | ≤ -4.2
166 | A12G G83A G133C G143A U146G | -3.34
167 | A12U U53A G141U | -1.08
